Data published in the DeepSol protein solubility set.

assay: soluble on expression in E. coli; label from the status in PepcDB or PDB records

Row | Sequence | soluble on expression in E. coli
1 | MSEEIKPSAPDAPTASPIVTRDEQNLVVSFLQFIRQKVSQNQATAEQAEALEVAIQCLEHSFGLDDASYAFQPSRPILELFKSAEGLPEGESALPTPSDSDISQANKLKEEGNDLMKASQFEAAVQKYNAAIKLNRDPVYFCNRAAAYCRLEQYDLAIQDCRTALALDPSYSKAWGRMGLAYSCQNRYEHAAEAYKKALELEPNQESYKNNLKIAEDKLKELESSRPAPGANPLAGLLGAMGGGPGGMPAMPGMPNMQNLMNEPGLMQAASQMMSDPALSDMFNNMMSGNGSIADLMAAGQQMAARMQETNPELIENLRRQFGPGADGGAPPPNPPQ | not soluble
2 | MSEEISLSAEFIDRVKASVKPHWGKLGWVTYKRTYARWLPEKGRSENWDETVKRVVEGNINLDPRLQDSPSLELKQSLTEEAERLYKLIYGLGATPSGRNLWISGTDYQRRTGDSLNNCWFVAIRPQKYGDSKIVPSYLGKQEKAVSMPFSFLFDELMKGGGVGFSVARSNISQIPRVDFAIDLQLVVDETSESYDASVKVGAVGKNELVQDADSIYYRLPDTREGWVLANALLIDLHFAQTNPDRKQKLILDLSDIRPYGAEIHGFGGTASGPMPLISMLLDVNEVLNNKAGGRLTAVDAADICNLIGKAVVAGNVRRSAELALGSNDDQDFISMKQDQEKLMHHRWASNNSVAVDSAFSGYQPIAAGIRENGEPGIVNLDLSKNYGRIVDGYQAGIDGDVEGTNPCGEISLANGEPCNLFEVFPLIAEEQGWDLQEVFALAARYAKRVTFSPYDWEISREIIQKNRRIGISMSGIQDWLLTRLGNRVVTGFKDDFDPETHEAIKVPVYDKRAIKMVDQLYKAVVKADQDYSKTLGCNESIKHTTVKPSGTVAKLAGASEGMHFHYGAYLIQRIRFQDSDPLLPALKACGYRTEADIYTENTTCVEFPIKAVGADNPNFASAGTVSIAEQFATQAFLQTYWSDNAVSCTITFQDSEGDQVESLLRQYRFITKSTSLLPYFGGSLQQAPKEPIDKETYEKRSQEITGNVEEVFSQLNSDVKDLELVDQTDCEGGACPIK | soluble
3 | MSEFKSKLESETLDFLCDAILTLENREECYRFFDDIFTINEIKTIEQRLQVAKMLKEKHTYSDISAETGASTATISRVNRCINYGSDGYNIVLRRLEK | not soluble
4 | MSEKDFVQVAKLGKTVGLKGYVKLHNLSDFSSQFKKDATFFIKNTKEMLKIKHYNANNSTVLFENYEDIEKAKELTNLILFQSIEKSRQTCKLKKDEFFYFDILECEVFEEDKRLGKVVDILETGASYLFEIQSDEKWVEKKYPKIFFIPYLDKFVKNIDIEKRQIFCTQDAFLILENSLEHHHHHH | soluble
5 | MSEKRVQPLARDAMAYVLAGGRGSRLKELTDRRAKPAVYFGGKARIIDFALSNALNSGIRRIGVATQYKAHSLIRHLQRGWDFFRPERNESFDILPASQRVSETQWYEGTADAVYQNIDIIEPYAPEYMVILAGDHIYKMDYEYMLQQHVDSGADVTIGCLEVPRMEATGFGVMHVNEKDEIIDFIEKPADPPGIPGNEGFALASMGIYVFHTKFLMEAVRRDAADPTSSRDFGKDIIPYIVEHGKAVAHRFADSCVRSDFEHEPYWRDVGTIDAYWQANIDLTDVVPDLDIYDKSWPIWTYAEITPPAKFVHDDEDRRGSAVSSVVSGDCIISGAALNRSLLFTGVRANSYSRLENAVVLPSVKIGRHAQLSNVVIDHGVVIPEGLIVGEDPELDAKRFRRTESGICLITQSMIDKLDL | soluble
6 | MSEKTNPNLTLHDVTDKLEGDDEKYATALKTCGEVFAEVEAIFNDENYLSHAGWFKDESNNEGDVVYAKDTPHGRMVTISTELPMPVEDVMKETWNGMEALPEWNQNINFAARIAAPTSNFDIVTYGNNDVLVVSGREFVSARIWRKVGDGFILASRSVTVPSFKSKHKGKVRAHLHLAGARFRPNPENPETTLTDVVMLADLKGYLPKMIVNQVIGRIMIMDTVTNRRHFQNLKAKRTNN | not soluble
7 | MSELDTVIKNAEEIAIQEDEEIIEEVIEEEQVPWLGPTDVMEGQGEYYQSEELLEHEMVEYEDAEPYQSFLPIRDGAPYFSLNLPDLLSKAHQITQDTGVIVRLTSCFNKKCQRQVACGGCLYTIKDYVSDIQWNNWTCINPQCFGEIRTTPDFRDIREVHGHTANCPPPDEIQIAVRIAVYDTRLLAEFTDTPLENLYFGAVERLKIDCADGFVLFPPFEVVKSTLEDHRHNKIYRKRFEMQNLRDKQRKMNMTPDEVVFAENTSGMIRFRRTKPFPMSICNVCGEEISSTNLPSQDQLISHYMYTHGRRMTIERYEFKDVNTFEQYLRELNSMGKYKFKRMGLADENMFYLCSHDDRLNKTGIGRATRLQQQSCHCTAFIRVFDWRVRWKLNNLNYEQITKKSDIYTFNAVCKVEDMCMSLLNRLQDCQNPRVALGYREKIAAIVRKSTTDPGLCDEKSVEEIEKSWVLQKPIRGRPRKRVKLENGQEDGGGDLDEDDDVVMDDYEDGEENGDKKITASRRSESPKPASSSSEPPPPSTTEEASTSLADELPRVTREESTSSNTSGHVAGDVTTRSGRARKPPARLLDD | not soluble
8 | MSELEKTFGIKVSPGAIYPILSSLRKSGLIEVAREGKREKKLYRITEKGEEYLKKHEDEVEEALEIANKLKEFSELGGREVAQVLREVIENIDKLSEEQKTALAREFSEFVKRIKIILLGGE | soluble
9 | MSELHYLYGKPTGTADLRTVNSDFIVKEILPFSPSGEGEHHLVHIRKDGLNTVQVAEMLAKFAKVHPKEVTYAGQKDKNAITEQWFGIRIPGKETPAWIELNSDRLTVLSSSRHSKKLRIGALLGNRFILTLRNVTNVEDIISRIEKVSQIGVPNYFGEQRFGHDGKNLVLGRQMLAGKKVKDRNKRSMYLSAVRSHLFNTVVSYRLTHYGTRPLAGDCVMLAGSKSFFVTPEWDLVVLKRLIEKDIQLSAPLWGRGKMLPQGEAAEVETQAMADLTEDCYGLEHAGLEQERRPLLLEPQGLKHEQTSDGLVLEFILPAGCFATSLLRELVDYQDVKELQWQTTLTAETNVVTESNTAAANVSDNGESASLEHHHHHH | soluble
10 | MSENKNVQDTHISEQMKALHGALIRVVSALNRPRNDEKLIAEAGIQLDRALFSILISIERLGPIGVVELAERAGRDYTTVSRQVAKLEKLGLIIRQHNAIDRRIREAVISRTGKAMTERIDAAREQMGNVVFKDWPQDELDVFVRLMQKFADAMDSDASMPE | not soluble
11 | MSENPVVSDKKPGPSKDSSFFSDLYDNLNQNPYFNAGAGLAGIGIAMSFLRRTAQISNTYFRRRFMINLQINNEDAAYPWLLDFINNRSATQTRNLSANTVVHQAESGKTELSISFLPGHGTHFFVHDYRWIKVERQREKQVIQRDGIRTPFETVTLTTLGSDVKFFKRMLEQSAKEAIDNAETGLVIYQAVGPQWIRFGVPRKKRDIESVILDGRICEELVEDFQEFISSATWYADRGVPYRRGYLFYGPPGTGKSSFISALASHFGYSVCLLSLSERTLDDDRLNHLLNTAPPNSVVILEDIDAAFVSREDPMSNHPAYQGLSRVTFSGLLNALDGVACAEERLTFMTTNYVERLDPALIRPGRVDRKQYFGNATDGMLSKMFSRFYRQPSDSVLADEFVKRVSEHKTELSPAMIQGHFLMYKQDPRAALDNIKNMFKTV | not soluble
12 | MSEPIRVLVTGAAGQIAYSLLYSIGNGSVFGKDQPIILVLLDITPMMGVLDGVLMELQDCALPLLKDVIATDKEDVAFKDLDVAILVGSMPRREGMERKDLLKANVKIFKSQGAALDKYAKKSVKVIVVGNPANTNCLTASKSAPSIPKENFSCLTRLDHNRAKAQIALKLGVTANDVKNVIIWGNHSSTQYPDVNHAKVKLQGKEVGVYEALKDDSWLKGEFVTTVQQRGAAVIKARKLSSAMSAAKAICDHVRDIWFGTPEGEFVSMGVISDGNSYGVPDDLLYSFPVVIKNKTWKFVEGLPINDFSREKMDLTAKELTEEKESAFEFLSSA | soluble
13 | MSEPMSERERWQLELDKLQRGLQGDPFAFLGPQRDPGGEGGVLRAYLPGAQRVELLDEDGATLAELEQSDPGSGLFQRHLERLPPRYRLRVHWPDGVQESEDPYAFGPLLGELDLYLFAEGNHRQLASCLGAQLTRHEGVEGVRFAVWAPNAVRVSVVGDFNGWDGRRHPMRRRYPSGVWELFVPRLGEGELYKYELQGHDGLLPLKADPLALACETPPGTASKTCAALRHEWRDQDWLARRAERQGYAAP | not soluble
14 | MSETAKRLLRRVEAIDAAAAENRARAEQYRQMTEKLAAVTGTATSPDGVVTVVAGPDGSVKEVTFSEQVRKADPAALSASVVHTIAQARVNATREQAEIMRRNLDDTHLLDQVLAEDARLFGDKQPEDPGPPPPAAVPTGGTPAGRPRTQPARQAYNDDDSFEDFQVLRRS | not soluble
15 | MSETKNITVPEINKTVEQMLIKGRWLDALDFWINNTDSLVLIRWLAQFISQLSPEEDSLLLQSIVRWKEGDDEQRWEIFRHAESVGFSTQTGALGVSLFVSQGSLSPAPYDPVYAPSCSEKKIIYGILMHQSNKYYDAPDEGVFFLFRHWCNSHS | not soluble
16 | MSETPEYGVLSWWDYGNWIVYVGKRPAVSNNFQTGVEDSANFLLTDSEEEAKTIVEKLKVKYVMTDTLMAEGKFSSITSLAGKEIGEYYEVETVKGDTGLRTVATPKQALLQTQVYKLHKLDGTSLGHFRLVHESAVNSTDDGNSKENTVKVFEYVKGATLSGTLEHHHHHH | not soluble
17 | MSFEEFTPLNEKSLVDYIKSTPALSSKIGADKSDDDLVIKEVGDGNLNFVFIVVGSSGSLVIKQALPYIRCIGESWPMTKERAYFEATTLRKHGNLSPDHVPEVYHFDRTMALIGMRYLEPPHIILRKGLIAGIEYPFLADHMSDYMAKTLFFTSLLYHDTTEHRRAVTEFCGNVELCRLTEQVVFSDPYRVSTFNRWTSPYLDDDAKAVREDSALKLEIAELKSMFCERAQALIHGDLHTGSVMVTQDSTQVIDPEFSFYGPMGFDIGAYLGNLILAFFAQDGHATQENDRKEYKQWILRTIEQTWNLFNKRFIALWDQNKDGPGEAYLADIYNNTEVLKFVQENYMRNLLHDSLGFGAAKMIRRIVGVAHVEDFESIEEDKRRAICERSALEFAKMLLKERRKFKSIGEVVSAIQQQS | soluble
18 | MSFFTKEQQPKENCPPITVEKARQLFEFNTNHLSLSDYHHQTVLKTSKQLVAQHLMPNATDNLSQHFLMNYKANNNYLGFQASIVDFFTDSAVANFSSSYVYESQEKIIRLPKPTKISTALSTCIIKRRSHRQFSDRQMPLQDLSNILYYACGVSSQASIRDGASDKITLRNCASGGGLYPIHLVFYARNISKLIDGFYEYLPYQHALRCYRHSSEENVRDFAEYGAINAENCNIIIIYVYHYMKNTRKYGNQATAYAFIESGEIAQNIQLTATALTYGSIDIGGYNKEYLQELLDLDGLGEHVIHMTLVGTKESQ | not soluble
19 | MSFITAFRERVFIASGDLIRTFRISEETELKNFISWSKINPERIQKPSFDIEKELKAVEKRVILCLAHSNVLTTHGRRLVAVGTNEKQIHVFEYFVNDKGDIVTAEHIVTSVVPKAPTAIVFDKEDAYVVVGDRAGDVHRFSVLNGSAIEMAGAISMILDVAFSPDGKRLLMADRDEKVRALRYPATSVIDSFFLGHTEYVKTLAVQDNDSLWSSGGDKNLYNWSIAKCSAPRRTLDLSQFDAPIRKISINLQHKKIAVIFEKIETVVIVDLNQESLQTTSVSIVGESQCLDIASTKDYFAVLGRSTVHLIDLNNMEQKFVPIDEELTITLTSTNDAIDNLFKNVTHNNQQEYEKRKADKFEQIEKKKRRLNEDINGDDGEGPGPSNS | not soluble
